Test results: US20240417469A1 (CONCEPT TO MEDICINE BIOTECH, published 2024)

What was measured:
[1] = target: human CD3 on cells (human PBMC; Jurkat TCR/CD3 NFAT reporter cells) (human, UniProt P07766 23-207; P04234 22-171; P09693 23-182); assay: cell-based or functional assay
[2] = target: T1, human CD3 protein (human, UniProt P07766 23-126; P04234 22-105); assay: ELISA, plate-coated CD3;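 also: binding to plate-immobilized human CD3 protein, bound antibody detected with peroxidase-labelled anti-human IgG and TMB, read as absorbance at 450 nm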
T1 construct: ELISA coating protein; also called Human CD3D & CD3E Heterodimer Protein
T1 sequence (P07766 23-126 limits assumed, chain 1 of 2): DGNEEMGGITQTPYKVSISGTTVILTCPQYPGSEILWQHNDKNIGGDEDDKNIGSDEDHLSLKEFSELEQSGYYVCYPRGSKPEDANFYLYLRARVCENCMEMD
T1 sequence (P04234 22-105 limits assumed, chain 2 of 2): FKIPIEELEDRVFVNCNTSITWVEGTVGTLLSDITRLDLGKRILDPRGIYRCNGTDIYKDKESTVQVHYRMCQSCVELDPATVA

[3] = target: T2, recombinant CD3D&E protein (human CD3-his tag) (human, UniProt P04234 22-105; P07766 23-126, limits assumed); assay: SPR Biacore, Ab captured on Protein A;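 also: humanized antibodies on a Protein A chip, human CD3-his analyte flowed over in serial dilutions for 3 min, dissociation tracked 120–360 s on a Biacore T200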
T2 construct: Analyte in Biacore; also called CD3D&E-His; CD3d&ε-His
T2 sequence (P04234 22-105 limits assumed, chain 1 of 2): as the sequence (P04234 22-105 limits assumed, chain 2 of 2) above
T2 sequence (P07766 23-126 limits assumed, chain 2 of 2): as the sequence (P07766 23-126 limits assumed, chain 1 of 2) above

Sequence of human CD3 on cells (human PBMC; Jurkat TCR/CD3 NFAT reporter cells) (P07766 23-207, chain 1 of 3): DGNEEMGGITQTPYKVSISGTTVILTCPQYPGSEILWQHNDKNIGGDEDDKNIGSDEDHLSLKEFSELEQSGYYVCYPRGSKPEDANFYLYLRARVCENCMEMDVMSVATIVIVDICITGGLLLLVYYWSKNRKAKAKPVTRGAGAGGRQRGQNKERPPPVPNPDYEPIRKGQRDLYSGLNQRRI
Sequence of human CD3 on cells (human PBMC; Jurkat TCR/CD3 NFAT reporter cells) (P04234 22-171, chain 2 of 3): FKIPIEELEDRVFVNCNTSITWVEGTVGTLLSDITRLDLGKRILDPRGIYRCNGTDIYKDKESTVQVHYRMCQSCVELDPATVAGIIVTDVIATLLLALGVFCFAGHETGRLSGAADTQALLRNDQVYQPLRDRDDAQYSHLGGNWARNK
Sequence of human CD3 on cells (human PBMC; Jurkat TCR/CD3 NFAT reporter cells) (P09693 23-182, chain 3 of 3): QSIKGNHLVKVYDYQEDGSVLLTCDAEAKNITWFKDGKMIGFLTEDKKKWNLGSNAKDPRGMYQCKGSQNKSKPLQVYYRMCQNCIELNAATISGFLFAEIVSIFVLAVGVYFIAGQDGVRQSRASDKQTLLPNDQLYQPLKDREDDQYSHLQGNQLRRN

Binder	CD3-NFAT Activity by CD3 mAb [1] [% SP34]	EC50 [2] [ng/mL]	Kd [3] [µM]	koff [3] [s⁻¹]	kon [3] [M⁻¹ s⁻¹]
Hu192A7B9-16 (antibody, V domains shown, humanized mAb) VH: EVQLQESGPGLVKPSETLSLTCTVSGGSISSYNVHWVRQPPGKGLEWMGRMRYNGDTSYNSALKSRLTISRDTSKNQFSLKLSSVTAADTAVYYCTRGPRGGYYSALFDYWGQGTMVTVSS VL: DIQMTQSPSSLSASVGDRVTITCKASQNINRYLNWYQQKPGKAPKLLISIANSLQTGIPSRFSGSGSGTDFTLTISSLQPEDFATYYCLQHNSWYTFGQGTKLEIK	> 50	7.46	0.146	0.0143	97600
Hu192A7B9-2 (antibody, V domains shown, humanized mAb) VH: EVQLQESGPGLVKPSETLSLTCTVSGGSISSYNVHWVRQPPGKGLEWIGRMRYNGDTSYNSALKSRVTISRDTSKNQFSLKLSSVTAADTAVYYCARGPRGGYYSALFDYWGQGTMVTVSS VL: DIQMTQSPSSLSASVGDRVTITCKASQNINRYLNWYQQKPGKAPKLLIYIANSLQTGVPSRFSGSGSGTDFTLTISSLQPEDFATYYCLQHNSWYTFGQGTKLEIK	≤ 50	194	–	–	–
Hu192A7B9-4 (antibody, V domains shown, humanized mAb) VH: EVQLQESGPGLVKPSETLSLTCTVSGGSISSYNVHWVRQPPGKGLEWMGRMRYNGDTSYNSALKSRLTISRDTSKNQFSLKLSSVTAADTAVYYCTRGPRGGYYSALFDYWGQGTMVTVSS VL: DIQMTQSPSSLSASVGDRVTITCKASQNINRYLNWYQQKPGKAPKLLIYIANSLQTGVPSRFSGSGSGTDFTLTISSLQPEDFATYYCLQHNSWYTFGQGTKLEIK	≤ 50	22.8	–	–	–
Hu192A7B9-1 (antibody, V domains shown, humanized mAb) VH: EVQLQESGPGLVKPSETLSLTCTVSGGSISSYNVHWIRQPPGKGLEWIGRMRYNGDTSYNSALKSRVTISVDTSKNQFSLKLSSVTAADTAVYYCARGPRGGYYSALFDYWGQGTMVTVSS VL: DIQMTQSPSSLSASVGDRVTITCKASQNINRYLNWYQQKPGKAPKLLIYIANSLQTGVPSRFSGSGSGTDFTLTISSLQPEDFATYYCLQHNSWYTFGQGTKLEIK	≤ 50	148	–	–	–
Hu192A7B9-8 (antibody, V domains shown, humanized mAb) VH: EVQLQESGPGLVKPSETLSLTCTVSGGSISSYNVHWVRQPPGKGLEWIGRMRYNGDTSYNSALKSRVTISRDTSKNQFSLKLSSVTAADTAVYYCARGPRGGYYSALFDYWGQGTMVTVSS VL: DIQMTQSPSSLSASVGDRVTITCKASQNINRYLNWYQQKPGKAPKLLISIANSLQTGVPSRFSGSGSGTDFTLTISSLQPEDFATYYCLQHNSWYTFGQGTKLEIK	> 50	6.42	0.0589	0.0475	805000
Hu192A7B9-12 (antibody, V domains shown, humanized mAb) VH: EVQLQESGPGLVKPSETLSLTCTVSGFSLTSYNVHWVRQPPGKGLEWMGRMRYNGDTSYNSALKSRLTISRDTSKNQVSLKLSSVTAADTAVYYCTRGPRGGYYSALFDYWGQGTMVTVSS VL: DIQMTQSPSSLSASVGDRVTITCKASQNINRYLNWYQQKPGKAPKLLISIANSLQTGVPSRFSGSGSGTDFTLTISSLQPEDFATYYCLQHNSWYTFGQGTKLEIK	> 50	9.74	0.0581	0.00317	54600
Hu192A7B9-9 (antibody, V domains shown, humanized mAb) VH: EVQLQESGPGLVKPSETLSLTCTVSGGSISSYNVHWVRQPPGKGLEWMGRMRYNGDTSYNSALKSRLTISRDTSKNQFSLKLSSVTAADTAVYYCARGPRGGYYSALFDYWGQGTMVTVSS VL: DIQMTQSPSSLSASVGDRVTITCKASQNINRYLNWYQQKPGKAPKLLISIANSLQTGVPSRFSGSGSGTDFTLTISSLQPEDFATYYCLQHNSWYTFGQGTKLEIK	> 50	5.58	0.0927	0.0204	220000
Hu192A7B9-6 (antibody, V domains shown, humanized mAb) VH: EVQLQESGPGLVKPSETLSLTCTVSGFSLTSYNVHWVRQPPGKGLEWMGRMRYNGDTSYNSALKSRLTISRDTSKNQVSLKLSSVTAADTAVYYCTRGPRGGYYSALFDYWGQGTMVTVSS VL: DIQMTQSPSSLSASVGDRVTITCKASQNINRYLNWYQQKPGKAPKLLIYIANSLQTGVPSRFSGSGSGTDFTLTISSLQPEDFATYYCLQHNSWYTFGQGTKLEIK	> 50	8.59	0.283	0.024	84900
Hu192A7B9-14 (antibody, V domains shown, humanized mAb) VH: EVQLQESGPGLVKPSETLSLTCTVSGGSISSYNVHWVRQPPGKGLEWIGRMRYNGDTSYNSALKSRVTISRDTSKNQFSLKLSSVTAADTAVYYCARGPRGGYYSALFDYWGQGTMVTVSS VL: DIQMTQSPSSLSASVGDRVTITCKASQNINRYLNWYQQKPGKAPKLLISIANSLQTGIPSRFSGSGSGTDFTLTISSLQPEDFATYYCLQHNSWYTFGQGTKLEIK	> 50	5.02	0.0867	0.0179	206000
Hu192A7B9-10 (antibody, V domains shown, humanized mAb) VH: EVQLQESGPGLVKPSETLSLTCTVSGGSISSYNVHWVRQPPGKGLEWMGRMRYNGDTSYNSALKSRLTISRDTSKNQFSLKLSSVTAADTAVYYCTRGPRGGYYSALFDYWGQGTMVTVSS VL: DIQMTQSPSSLSASVGDRVTITCKASQNINRYLNWYQQKPGKAPKLLISIANSLQTGVPSRFSGSGSGTDFTLTISSLQPEDFATYYCLQHNSWYTFGQGTKLEIK	> 50	5.08	0.122	0.0144	118000
Hu192A7B9-11 (antibody, V domains shown, humanized mAb) VH: EVQLQESGPGLVKPSETLSLTCTVSGFSISSYNVHWVRQPPGKGLEWMGRMRYNGDTSYNSALKSRLTISRDTSKNQVSLKLSSVTAADTAVYYCTRGPRGGYYSALFDYWGQGTMVTVSS VL: DIQMTQSPSSLSASVGDRVTITCKASQNINRYLNWYQQKPGKAPKLLISIANSLQTGVPSRFSGSGSGTDFTLTISSLQPEDFATYYCLQHNSWYTFGQGTKLEIK	> 50	7.95	0.0777	0.00449	57800
Hu192A7B9-3 (antibody, V domains shown, humanized mAb) VH: EVQLQESGPGLVKPSETLSLTCTVSGGSISSYNVHWVRQPPGKGLEWMGRMRYNGDTSYNSALKSRLTISRDTSKNQFSLKLSSVTAADTAVYYCARGPRGGYYSALFDYWGQGTMVTVSS VL: DIQMTQSPSSLSASVGDRVTITCKASQNINRYLNWYQQKPGKAPKLLIYIANSLQTGVPSRFSGSGSGTDFTLTISSLQPEDFATYYCLQHNSWYTFGQGTKLEIK	≤ 50	86.2	–	–	–
Hu192A7B9-5 (antibody, V domains shown, humanized mAb) VH: EVQLQESGPGLVKPSETLSLTCTVSGFSISSYNVHWVRQPPGKGLEWMGRMRYNGDTSYNSALKSRLTISRDTSKNQVSLKLSSVTAADTAVYYCTRGPRGGYYSALFDYWGQGTMVTVSS VL: DIQMTQSPSSLSASVGDRVTITCKASQNINRYLNWYQQKPGKAPKLLIYIANSLQTGVPSRFSGSGSGTDFTLTISSLQPEDFATYYCLQHNSWYTFGQGTKLEIK	> 50	5.52	0.103	0.0119	116000
Hu192A7B9-7 (antibody, V domains shown, humanized mAb) VH: EVQLQESGPGLVKPSETLSLTCTVSGGSISSYNVHWIRQPPGKGLEWIGRMRYNGDTSYNSALKSRVTISVDTSKNQFSLKLSSVTAADTAVYYCARGPRGGYYSALFDYWGQGTMVTVSS VL: DIQMTQSPSSLSASVGDRVTITCKASQNINRYLNWYQQKPGKAPKLLISIANSLQTGVPSRFSGSGSGTDFTLTISSLQPEDFATYYCLQHNSWYTFGQGTKLEIK	≤ 50	22.6	0.0796	0.0151	190000
Hu192A7B9-15 (antibody, V domains shown, humanized mAb) VH: EVQLQESGPGLVKPSETLSLTCTVSGGSISSYNVHWVRQPPGKGLEWMGRMRYNGDTSYNSALKSRLTISRDTSKNQFSLKLSSVTAADTAVYYCARGPRGGYYSALFDYWGQGTMVTVSS VL: DIQMTQSPSSLSASVGDRVTITCKASQNINRYLNWYQQKPGKAPKLLISIANSLQTGIPSRFSGSGSGTDFTLTISSLQPEDFATYYCLQHNSWYTFGQGTKLEIK	> 50	28.8	0.0409	0.00741	181000
Hu192A7B9-13 (antibody, V domains shown, humanized mAb) VH: EVQLQESGPGLVKPSETLSLTCTVSGGSISSYNVHWIRQPPGKGLEWIGRMRYNGDTSYNSALKSRVTISVDTSKNQFSLKLSSVTAADTAVYYCARGPRGGYYSALFDYWGQGTMVTVSS VL: DIQMTQSPSSLSASVGDRVTITCKASQNINRYLNWYQQKPGKAPKLLISIANSLQTGIPSRFSGSGSGTDFTLTISSLQPEDFATYYCLQHNSWYTFGQGTKLEIK	≤ 50	14.5	0.022	0.00631	286000
Hu192A7B9-17 (antibody, V domains shown, humanized mAb) VH: EVQLQESGPGLVKPSETLSLTCTVSGFSISSYNVHWVRQPPGKGLEWMGRMRYNGDTSYNSALKSRLTISRDTSKNQVSLKLSSVTAADTAVYYCTRGPRGGYYSALFDYWGQGTMVTVSS VL: DIQMTQSPSSLSASVGDRVTITCKASQNINRYLNWYQQKPGKAPKLLISIANSLQTGIPSRFSGSGSGTDFTLTISSLQPEDFATYYCLQHNSWYTFGQGTKLEIK	> 50	4.46	0.0648	0.00532	82200
